In article PMC11459484:

Target: Selenomonas sp. HNH-Cascade Cas7 (Cas7f1) (Selenomonas sp.)
Assay: cryo-EM structure; SsCascade RNP (Cas5/6/7/8 and processed crRNA) co-expressed in E. coli, purified by Ni-NTA and gel filtration, mixed with target DNA at ambient temperature for 5 minutes; Map A 3.48 Å, Map B 3.28 Å

Substance: Selenomonas sp. HNH-Cascade Cas7 (Cas7f1) (natural protein)
- stoichiometry N: 6
